The record followed here is PMC8880771, “Therapeutic antibody activation of the glucocorticoid-induced TNF receptor by a clustering mechanism” (Science Advances, 2022).

To fix the notation:
B1: mGITR_(ΔCTD-egfp) (domain or fragment, mouse, UniProt O35714 20-185, looked up)
chain: QPSVVEEPGCGPGKVQNGSGNNTRCCSLYAPGKEDCPKERCICVTPEYHCGDPQCKICKHYPCQPGQRVESQGDIVFGFRCVACAMGTFSAGRDGHCRLWTNCSQFGFLTMFPGNKTHNAVCIPEPLPTEQYGHLTVIFLVMAACIFFLTTVQLGLHIWQLRRQHM
notes: signal peptide in the construct; mouse GITR without the unstructured C-terminal residues C186-P228; also called CTD deletion construct; source: HEK293 cells, solubilized with DDM, in lysate; not shown: EGFP, C-terminal, kept; 1D4, C-terminal, kept
B2: mGITR_(ΔCTD-egfp)-C164A (domain or fragment, mouse, UniProt O35714 20-185, looked up)
chain: B1 chain with C145A
notes: signal peptide in the construct; mouse GITR without the C-terminal residues C186-P228, with C164A; also called C164A mutant; source: HEK293 cells, solubilized with DDM, in lysate; not shown: EGFP, C-terminal, kept; 1D4, C-terminal, kept
B3: full-length mouse GITR ligand (mGITRL) (ligand, UniProt Q7TS55 1-173, looked up)
chain: MEEMPLRESSPQRAERCKKSWLLCIVALLLMLLCSLGTLIYTSLKPTAIESCMVKFELSSSKWHMTSPKPHCVNTTSDGKLKILQSGTYLIYGQVIPVDKKYIKDNAPFVVQIYKKNDVLQTLMNDFQILPIGGVYELHAGDNIYLKFNSKDHIQKTNTYWGIILMPDLPFIS
notes: mouse GITRL, full-length gene with transmembrane region, in pEZT-BM; the oligomeric state of the full-length protein was not measured here; source: HEK293S GnTI- suspension cells (BacMam), solubilized in DDM, purified (StrepTrap HP, Superose 6)
B4: full-length mouse GITR fused to EGFP at its C terminus (mGITR_(egfp)), purified (receptor, UniProt O35714 20-228, looked up)
chain: QPSVVEEPGCGPGKVQNGSGNNTRCCSLYAPGKEDCPKERCICVTPEYHCGDPQCKICKHYPCQPGQRVESQGDIVFGFRCVACAMGTFSAGRDGHCRLWTNCSQFGFLTMFPGNKTHNAVCIPEPLPTEQYGHLTVIFLVMAACIFFLTTVQLGLHIWQLRRQHMCPRETQPFAEVQLSAEDACSFQFPEEERGEQTEEKCHLGGRWP
modifications: intersubunit disulfide bond at Cys55
notes: signal peptide in the construct; mouse GITR, full-length gene in pEZT-BM, followed by a thrombin cleavage site, EGFP and 8x His; Cys14 lies in the predicted signal peptide and is not in the mature protein; last residue P228; Disulfide-linked dimer by cryo-EM; EGFP fluorescence was monitored in FSEC; also called glucocorticoid-induced TNF receptor; source: HEK293S GnTI- suspension cells (BacMam), …
B5: full-length mGITR_(egfp) with C-terminal 1D4 tag, in HEK293 lysate (receptor, mouse, UniProt O35714 20-228, looked up)
chain: B4 chain
modifications: intersubunit disulfide bond at Cys55
notes: signal peptide in the construct; mouse GITR, full length (to P228), followed by EGFP and a 1D4 tag; May be the same construct as m1; the methods name an 8x His tag for the purified protein, the results a 1D4 tag for all constructs analysed in lysate; source: HEK293 cells, solubilized with DDM, in lysate; not shown: EGFP, C-terminal, kept; 1D4, C-terminal, kept

Series [1] deals with the molecule itself. Kind of series: non-reducing SDS-PAGE with anti-1D4 Western blot; lysate, nonreduced (-DTT); denaturing SDS-PAGE, shows only covalent dimers.
The target in series [2] is B4. Kind of series: SEC; FSEC of purified proteins mixed with mGITR_(egfp), EGFP fluorescence (tryptophan fluorescence as control), Superose 6 Increase 10/300 GL, 20 mM tris pH 8.0, 300 mM NaCl, 0.5 mM DDM; molar ratio 1:15:4:2 for mGITR_(egfp):mGITRL:Fab:IgG. The settings on record: both partners purified. On the technique in general: Size exclusion chromatography separates by hydrodynamic size, large species first.

Series [3] concerns the molecule itself. Kind of series: cryo-EM structure; mGITR_(egfp)/DTA-1 Fab complex in DDM, single-particle cryo-EM, global resolution 4.4 Å.

Where a chain is given by its changes, count along the chain named. Numbers in names are those of the source.

Turning to B1, the stoichiometry N (as a rule, the number of molecules, sites or subunits per partner or assembly) in series [1] is 2.
Same read-out and setting: for B2 the value was 2.
Take B3: the binding result in series [2] is “binds”.
As for B4, the “stoichiometry N” value in series [3] stood at 2.
In the case of B5, the “stoichiometry N” value in series [1] is 2.
